Results taken from paper PMC12078616, “A FAN1 point mutation associated with accelerated Huntington’s disease progression alters its PCNA-mediated assembly on DNA”.

Experiments:
[1] = target: FAN1 WT;PCNA D232A (human;human, UniProt Q9Y2M0;P12004 1-1017;1-261, |D232A); assay: SPR; FAN1 titrated, 10 µM PCNA D232A; MST: 25 mM HEPES pH 7.5, 125 mM KCl, 10 mM CaCl2, 5% glycerol, 1 mM TCEP, 0.005% Tween-20, 0.1% BSA, 10 nM Cy5-DNA, 25 °C; SPR buffer not in the material; conditions: protein: recombinant;recombinant; tags: His tag removed by PreScission;His tag removed by PreScission; copies: 1;3; label: 5'-biotin (SPR); blunt; one unpaired nt in strand 2
Chain of FAN1 WT;PCNA D232A (Q9Y2M0 whole entry, chain 1 of 2): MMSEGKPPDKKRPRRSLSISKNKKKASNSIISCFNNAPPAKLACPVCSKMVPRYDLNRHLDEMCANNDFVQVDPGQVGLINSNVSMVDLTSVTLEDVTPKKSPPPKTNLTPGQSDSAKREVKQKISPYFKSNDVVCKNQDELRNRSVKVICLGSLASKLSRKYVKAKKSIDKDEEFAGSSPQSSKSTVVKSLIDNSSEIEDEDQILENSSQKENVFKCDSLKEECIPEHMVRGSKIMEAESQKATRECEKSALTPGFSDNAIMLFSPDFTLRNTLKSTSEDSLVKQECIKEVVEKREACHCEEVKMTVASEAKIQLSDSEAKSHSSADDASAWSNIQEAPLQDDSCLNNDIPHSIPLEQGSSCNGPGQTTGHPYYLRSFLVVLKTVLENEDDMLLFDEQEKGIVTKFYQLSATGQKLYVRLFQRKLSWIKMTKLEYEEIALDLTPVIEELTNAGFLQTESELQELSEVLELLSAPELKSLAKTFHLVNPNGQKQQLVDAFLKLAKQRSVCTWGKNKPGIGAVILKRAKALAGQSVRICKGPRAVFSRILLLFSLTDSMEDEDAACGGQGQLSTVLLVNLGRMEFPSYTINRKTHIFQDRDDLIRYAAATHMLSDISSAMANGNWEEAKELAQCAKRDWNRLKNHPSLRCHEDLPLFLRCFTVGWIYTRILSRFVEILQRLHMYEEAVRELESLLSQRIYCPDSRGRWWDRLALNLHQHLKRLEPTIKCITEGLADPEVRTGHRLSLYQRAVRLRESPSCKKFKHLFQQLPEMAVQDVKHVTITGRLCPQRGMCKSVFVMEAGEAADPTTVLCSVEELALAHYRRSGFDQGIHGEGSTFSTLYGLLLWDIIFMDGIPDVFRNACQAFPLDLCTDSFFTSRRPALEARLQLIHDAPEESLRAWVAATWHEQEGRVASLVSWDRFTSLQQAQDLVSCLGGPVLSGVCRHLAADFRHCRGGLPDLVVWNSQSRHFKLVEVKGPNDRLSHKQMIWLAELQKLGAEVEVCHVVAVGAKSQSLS
Chain of FAN1 WT;PCNA D232A (P12004 whole entry D232A, chain 2 of 2): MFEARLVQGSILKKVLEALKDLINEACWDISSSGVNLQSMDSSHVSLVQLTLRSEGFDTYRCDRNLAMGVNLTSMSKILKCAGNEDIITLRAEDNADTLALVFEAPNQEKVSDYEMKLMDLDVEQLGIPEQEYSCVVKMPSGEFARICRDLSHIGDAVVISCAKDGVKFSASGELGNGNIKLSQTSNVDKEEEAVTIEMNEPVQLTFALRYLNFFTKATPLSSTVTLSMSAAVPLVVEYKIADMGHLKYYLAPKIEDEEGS

[2] = target: T1, FAN1 WT (human, UniProt Q9Y2M0 1-1017); assay: SPR; no PCNA; MST: 25 mM HEPES pH 7.5, 125 mM KCl, 10 mM CaCl2, 5% glycerol, 1 mM TCEP, 0.005% Tween-20, 0.1% BSA, 10 nM Cy5-DNA, 25 °C; SPR buffer not in the material; conditions: protein: recombinant; tags: His tag removed by PreScission; label: 5'-biotin (SPR); blunt; one unpaired nt in strand 2
T1 sequence (Q9Y2M0 whole entry): as the sequence (Q9Y2M0 whole entry, chain 1 of 2) above

[3] = target: FAN1 WT;PCNA WT (human;human, UniProt Q9Y2M0;P12004 1-1017;1-261, |); assay: SPR; FAN1 titrated, 10 µM PCNA WT; MST: 25 mM HEPES pH 7.5, 125 mM KCl, 10 mM CaCl2, 5% glycerol, 1 mM TCEP, 0.005% Tween-20, 0.1% BSA, 10 nM Cy5-DNA, 25 °C; SPR buffer not in the material; conditions: protein: recombinant;recombinant; tags: His tag removed by PreScission;His tag removed by PreScission; copies: 1;3; label: 5'-biotin (SPR); blunt; one unpaired nt in strand 2
Chain of FAN1 WT;PCNA WT (Q9Y2M0 whole entry, chain 1 of 2): as above
Chain of FAN1 WT;PCNA WT (P12004 whole entry, chain 2 of 2): as the sequence (P12004 whole entry D232A, chain 2 of 2) above, with A232D counted along it

[4] = target: PCNA D232A;trFAN1 R507H (human;human, UniProt P12004;Q9Y2M0 1-261;371-1017, D232A|R507H); assay: SPR; PCNA titrated, 100 nM trFAN1; MST: 25 mM HEPES pH 7.5, 125 mM KCl, 10 mM CaCl2, 5% glycerol, 1 mM TCEP, 0.005% Tween-20, 0.1% BSA, 10 nM Cy5-DNA, 25 °C; SPR buffer not in the material; conditions: protein: recombinant;recombinant; tags: His tag removed by PreScission;His tag removed by PreScission; chain copies: 3;1; label: 5'-biotin (SPR); blunt; one unpaired nt in strand 2
Chain of PCNA D232A;trFAN1 R507H (P12004 whole entry D232A, chain 1 of 2): as the sequence (P12004 whole entry D232A, chain 2 of 2) above
Chain of PCNA D232A;trFAN1 R507H (Q9Y2M0 371-1017 R507H, chain 2 of 2): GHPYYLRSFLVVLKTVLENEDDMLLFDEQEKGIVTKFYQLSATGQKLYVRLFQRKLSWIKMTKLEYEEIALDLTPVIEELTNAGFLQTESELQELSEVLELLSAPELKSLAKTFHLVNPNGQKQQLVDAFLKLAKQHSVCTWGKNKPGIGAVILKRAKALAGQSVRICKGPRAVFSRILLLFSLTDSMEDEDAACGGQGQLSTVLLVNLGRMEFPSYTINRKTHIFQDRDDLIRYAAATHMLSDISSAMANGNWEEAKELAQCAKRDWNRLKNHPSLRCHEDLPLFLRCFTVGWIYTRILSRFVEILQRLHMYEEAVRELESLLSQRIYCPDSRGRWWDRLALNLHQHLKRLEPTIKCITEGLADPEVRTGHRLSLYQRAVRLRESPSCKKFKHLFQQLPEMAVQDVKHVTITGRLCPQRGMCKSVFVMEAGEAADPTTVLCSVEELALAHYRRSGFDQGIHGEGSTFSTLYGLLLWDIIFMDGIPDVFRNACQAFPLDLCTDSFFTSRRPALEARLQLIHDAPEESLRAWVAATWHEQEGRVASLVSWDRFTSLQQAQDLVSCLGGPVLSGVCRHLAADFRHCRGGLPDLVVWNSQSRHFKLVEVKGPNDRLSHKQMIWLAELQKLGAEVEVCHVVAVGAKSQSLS

[5] = target: PCNA WT;trFAN1 WT (human;human, UniProt P12004;Q9Y2M0 1-261;371-1017, |); assay: as above; conditions: protein: recombinant;recombinant; tags: His tag removed by PreScission;His tag removed by PreScission; chain copies: 3;1; label: 5'-biotin (SPR); blunt; one unpaired nt in strand 2
Chain of PCNA WT;trFAN1 WT (P12004 whole entry, chain 1 of 2): as the sequence (P12004 whole entry D232A, chain 2 of 2) above, with A232D counted along it
Chain of PCNA WT;trFAN1 WT (Q9Y2M0 371-1017, chain 2 of 2): as the sequence (Q9Y2M0 371-1017 R507H, chain 2 of 2) above, with H137R counted along it

[6] = target: T2, PCNA WT;FAN1 WT (human;human, UniProt P12004;Q9Y2M0 1-261;1-1017, |); assay: SPR; PCNA titrated, 100 nM FAN1; MST: 25 mM HEPES pH 7.5, 125 mM KCl, 10 mM CaCl2, 5% glycerol, 1 mM TCEP, 0.005% Tween-20, 0.1% BSA, 10 nM Cy5-DNA, 25 °C; SPR buffer not in the material; conditions: protein: recombinant;recombinant; tags: His tag removed by PreScission;His tag removed by PreScission; chain copies: 3;1; label: 5'-biotin (SPR); blunt; one unpaired nt in strand 2
T2 sequence (P12004 whole entry, chain 1 of 2): as the sequence (P12004 whole entry D232A, chain 2 of 2) above, with A232D counted along it
T2 sequence (Q9Y2M0 whole entry, chain 2 of 2): as the sequence (Q9Y2M0 whole entry, chain 1 of 2) above

[7] = target: PCNA WT;FAN1 R507H (human;human, UniProt P12004;Q9Y2M0 1-261;1-1017, |R507H); assay: as above; conditions: protein: recombinant;recombinant; tags: His tag removed by PreScission;His tag removed by PreScission; chain copies: 3;1; label: 5'-biotin (SPR); blunt; one unpaired nt in strand 2
Chain of PCNA WT;FAN1 R507H (P12004 whole entry, chain 1 of 2): as the sequence (P12004 whole entry D232A, chain 2 of 2) above, with A232D counted along it
Chain of PCNA WT;FAN1 R507H (Q9Y2M0 whole entry R507H, chain 2 of 2): as the sequence (Q9Y2M0 whole entry, chain 1 of 2) above, with R507H counted along it

[8] = target: T2, PCNA WT;FAN1 WT; assay: SPR; 100 nM FAN1; Kd within 4-fold of homoduplex; koff 8.9e-3 s-1, slowest; MST: 25 mM HEPES pH 7.5, 125 mM KCl, 10 mM CaCl2, 5% glycerol, 1 mM TCEP, 0.005% Tween-20, 0.1% BSA, 10 nM Cy5-DNA, 25 °C; SPR buffer not in the material; conditions: protein: recombinant;recombinant; tags: His tag removed by PreScission;His tag removed by PreScission; chain copies: 3;1; label: 5'-biotin (SPR); blunt; (CAG)2 loop in strand 1
[9] = target: trFAN1 crystallization construct (human, UniProt Q9Y2M0 364-1017, R507H;K794A;del510-518); assay: X-ray crystallography; 2.65 Å; MST: 25 mM HEPES pH 7.5, 125 mM KCl, 10 mM CaCl2, 5% glycerol, 1 mM TCEP, 0.005% Tween-20, 0.1% BSA, 10 nM Cy5-DNA, 25 °C; SPR buffer not in the material; conditions: protein: recombinant; tags: His tag removed by PreScission; double flap: 1:2 1:3; 5' flap 1 nt (pG), 3' flap T4
Chain of trFAN1 crystallization construct (Q9Y2M0 other isoform, or with tags, fused parts or gaps R507H;K794A;del510-518): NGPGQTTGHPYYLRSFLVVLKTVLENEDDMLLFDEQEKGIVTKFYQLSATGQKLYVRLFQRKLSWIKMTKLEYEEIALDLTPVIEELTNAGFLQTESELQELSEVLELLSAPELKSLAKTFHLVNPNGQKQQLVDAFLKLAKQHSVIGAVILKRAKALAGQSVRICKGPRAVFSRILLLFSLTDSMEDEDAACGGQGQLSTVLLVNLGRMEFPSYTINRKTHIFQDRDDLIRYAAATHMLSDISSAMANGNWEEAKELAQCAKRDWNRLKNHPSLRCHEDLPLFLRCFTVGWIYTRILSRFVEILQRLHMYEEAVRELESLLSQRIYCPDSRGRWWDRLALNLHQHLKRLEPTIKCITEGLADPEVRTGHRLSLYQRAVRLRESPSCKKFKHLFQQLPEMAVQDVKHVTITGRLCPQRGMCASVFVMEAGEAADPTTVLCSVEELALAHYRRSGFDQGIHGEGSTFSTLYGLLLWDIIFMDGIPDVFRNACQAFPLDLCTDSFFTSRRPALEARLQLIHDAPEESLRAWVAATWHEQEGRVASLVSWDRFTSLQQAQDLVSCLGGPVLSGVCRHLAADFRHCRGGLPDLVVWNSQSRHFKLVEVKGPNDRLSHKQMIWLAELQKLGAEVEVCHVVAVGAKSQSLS

[10] = target: T1, FAN1 WT; assay: cryo-EM; 3.20 Å; EMD-19844; PDB id inconsistent in paper (Data availability says 9EO1; Supp. Table 3 and text imply 9EOA); MST: 25 mM HEPES pH 7.5, 125 mM KCl, 10 mM CaCl2, 5% glycerol, 1 mM TCEP, 0.005% Tween-20, 0.1% BSA, 10 nM Cy5-DNA, 25 °C; SPR buffer not in the material; conditions: protein: recombinant; tags: His tag removed by PreScission; double flap: 1:2 1:3; 5' flap and 3' poly-T flap

B1: 113 bp homoduplex (dsDNA)
DNA 1: CCGCTTTCTTCCCTTCCTTTGTGCACACGTTCCGAGATATCCTAGCAAGTGATCGTCTATGTAGCTCAAGAGTTCGACTTTCCCCGCTAAGCTCTACATCCGAGGCTCGCCGA
DNA 2: TCGGCGAGCCTCGGATGTAGAGCTTAGCGGGGAAAGTCGAACTCTTGAGCTACATAGTACGATCACTTGCTAGGATATCTCGGAACGTGTGCACAAAGGAAGGGAAGAAAGCGG
Q: Which Kd [1] does the source give for B1 here?
A: Its Kd is 5.4 ± 1.7 nM.

Q: And the Kd [2]?
A: The Kd was 7 ± 2.4 nM.

Q: And the Kd [3]?
A: Its Kd is 7.2 ± 2.4 nM.

Q: What about the Kd [4] of the same binder?
A: The Kd was 14000 ± 5100 nM.

Q: What about the Kd [5] of the same binder?
A: Its Kd is 3900 ± 1300 nM.

Q: What about the Kd [6] of the same binder?
A: Its Kd is 1600 ± 900 nM.

Q: What about the Kd [7] of the same binder?
A: The Kd was 3000 ± 800 nM.

B2: 113 bp (CAG)2 extrahelical extrusion (dsDNA)
DNA 1: CCGCTTTCTTCCCTTCCTTTGTGCACACGTTCCGAGATATCCTAGCAAGTGATCGTCAGCAGCTATGTAGCTCAAGAGTTCGACTTTCCCCGCTAAGCTCTACATCCGAGGCTCGCCGA
DNA 2: TCGGCGAGCCTCGGATGTAGAGCTTAGCGGGGAAAGTCGAACTCTTGAGCTACATAGTACGATCACTTGCTAGGATATCTCGGAACGTGTGCACAAAGGAAGGGAAGAAAGCGG
Q: Does B2 bind [8]?
A: Result: binds

B3: 5'pG1/3'T4 double flap DNA (crystallography) (dsDNA)
DNA 1: AACACGCCTAGACTCCTCA
DNA 2: TTTGAGGAGTCTTTTT
DNA 3: GAGGCGTG
modifications: 5'-phosphate on strand 3
Q: Does B3 bind [9]?
A: Result: binds

B4: 5' flap DNA (cryo-EM substrate) (dsDNA)
DNA 1: CCCGTCCAGGTCTCGTCCGCGCCACTCGTGTCCAGCGTCG
DNA 2: TGCGGACGAGACCTGGACGGG
DNA 3: CGACGCTGGACACGAGTGGCTTTTTTTT
modifications: 5'-phosphate on strand 2
Q: Does B4 bind [10]?
A: Result: binds
